Article PMC6817700

Target: T1, T-box 5 (TBX5) (Homo sapiens, UniProt Q99593 1-518)
T1 sequence: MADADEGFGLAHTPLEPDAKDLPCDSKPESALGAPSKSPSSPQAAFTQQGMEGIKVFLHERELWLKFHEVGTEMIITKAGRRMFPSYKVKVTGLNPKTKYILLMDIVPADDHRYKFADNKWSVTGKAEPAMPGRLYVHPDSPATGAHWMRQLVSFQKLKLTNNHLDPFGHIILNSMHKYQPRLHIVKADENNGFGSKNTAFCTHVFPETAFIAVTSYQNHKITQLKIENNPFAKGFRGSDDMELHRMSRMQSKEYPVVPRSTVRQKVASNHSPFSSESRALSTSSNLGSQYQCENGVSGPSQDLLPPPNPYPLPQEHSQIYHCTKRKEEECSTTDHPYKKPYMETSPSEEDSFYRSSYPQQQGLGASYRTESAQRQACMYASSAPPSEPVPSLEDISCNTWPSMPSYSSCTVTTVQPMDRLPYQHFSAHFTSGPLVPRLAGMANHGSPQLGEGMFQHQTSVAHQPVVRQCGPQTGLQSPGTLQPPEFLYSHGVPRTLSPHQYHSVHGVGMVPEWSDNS
Assay: EMSA

B1: CAGA (rs116461237 G>A) (dsDNA)
DNA 1: GCCCACCTCGGCCTCCCAAAGTTCTAGGATTACAGATGTGAGCTACC
DNA 2: GGTAGCTCACATCTGTAATCCTAGAACTTTGGGAGGCCGAGGTGGGGC
binding result: no binding
